{"source": "paper PMC11894533", "about": "“A virulent milRNA of Fusarium oxysporum f. sp. cubense impairs plant resistance by targeting banana AP2 transcription factor coding gene MaPTI6L”", "binders": {"B1": {"name": "MaEDS1 promoter GCC-box mutant probe (dsDNA)", "DNA 1": "CCAACTCCTCCTCTCTCTGGACAAAAAACACAAACTCGTCTTGAAAACTCCGCGACAAA", "DNA 2": "TTTGTCGCGGAGTTTTCAAGACGAGTTTGTGTTTTTTGTCCAGAGAGAGGAGGAGTTGG"}}, "target": "MaPTI6L (Musa acuminata (Cavendish group cv. …, UniProt A0A804I776 1-300))", "sequence (A0A804I776 entry or part of it)": "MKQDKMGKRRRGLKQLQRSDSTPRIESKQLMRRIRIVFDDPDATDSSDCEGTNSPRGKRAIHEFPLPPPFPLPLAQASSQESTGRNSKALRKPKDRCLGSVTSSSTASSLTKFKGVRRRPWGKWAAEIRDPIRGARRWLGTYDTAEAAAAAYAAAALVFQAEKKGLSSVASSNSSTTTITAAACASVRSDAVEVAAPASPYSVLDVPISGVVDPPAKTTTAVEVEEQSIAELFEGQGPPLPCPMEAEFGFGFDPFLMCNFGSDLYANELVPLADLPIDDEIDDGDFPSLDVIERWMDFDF", "experiment": "EMSA; EMSA Kit (Beyotime) protocol; buffer, salt, pH and temperature not stated", "details": "protein: recombinant; tags: MBP; label: FAM"}
{"binder": "B1", "values": [{"measurement": "binding result", "result": "no binding"}]}
